# Publication PMC8092134, “Cryptic β-Lactamase Evolution Is Driven by Low β-Lactam Concentrations” (mSphere, 2021)
# Molecular target: the molecule itself
# Assay: crystal structure; hanging drop, 5 mg/ml enzyme, 0.1 M Tris pH 9.0, 28 to 30% PEG mono ethylene ether 500, 4°C; soaked with ceftazidime; space group P2(1)2(1)2(1), four chains in the asymmetric unit
protein,measurement,value
"OXA-48 variant L67F (enzyme, carboxylated lysine at K73, point mutation L67F made by site-directed mutagenesis; Crystals were soaked with ceftazidime; chains C and D carry a hydrolysed ceftazidime molecule; also called OXA-48 L67F; source: E. coli BL21 AI (pDEST17), purified) KEWQENKSWNAHFTEHKSQGVVVLWNENKQQGFTNNLKRANQAFFPASTFKIPNSLIALDLGVVKDEHQVFKWDGQTRDIATWNRDHNLITAMKYSVVPVYQEFARQIGEARMSKMLHAFDYGNEDISGNVDSFWLDGGIRISATEQISFLRKLYHNKLHVSERSQRIVKQAMLTEANGDYIIRAKTGYSTRIEPKIGWWVGWVELDDNVWFFAMNMDMPTSDGLGLRQAITKEVLKQEKIIP",stoichiometry N,2
